The values that follow come from the supplement of paper PMC6379048.

Holding throughout (test): Kd (EC50 corrected by depletion factor)
One series has as its target T1, RBM47 (UniProt A0AV96).
T1 sequence: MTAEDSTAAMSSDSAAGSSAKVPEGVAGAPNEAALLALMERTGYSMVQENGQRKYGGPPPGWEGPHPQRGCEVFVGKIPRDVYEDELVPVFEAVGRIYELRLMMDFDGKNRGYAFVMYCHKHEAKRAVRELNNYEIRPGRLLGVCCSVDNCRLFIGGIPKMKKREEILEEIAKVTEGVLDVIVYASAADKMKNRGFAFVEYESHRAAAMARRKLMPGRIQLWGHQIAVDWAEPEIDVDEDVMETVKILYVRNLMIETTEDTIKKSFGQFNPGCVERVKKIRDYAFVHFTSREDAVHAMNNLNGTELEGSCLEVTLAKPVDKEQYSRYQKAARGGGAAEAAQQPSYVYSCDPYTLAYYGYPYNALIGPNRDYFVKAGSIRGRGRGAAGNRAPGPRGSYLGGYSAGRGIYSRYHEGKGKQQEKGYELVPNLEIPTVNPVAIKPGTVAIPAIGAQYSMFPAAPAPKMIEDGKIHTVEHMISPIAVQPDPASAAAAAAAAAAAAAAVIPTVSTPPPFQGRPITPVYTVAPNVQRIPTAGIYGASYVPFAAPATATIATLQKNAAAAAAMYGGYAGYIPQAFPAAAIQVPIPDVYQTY
The method in brief:
(§1)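 Free RNA oligos (0 nM to 30 μM) competed for 1 h at 4°C in HEK293-FT lysate (2.5 mg protein/well) before a 30 min, 4°C pulldown with the same oligos on NHS-Sepharose beads. Bound proteins were quantified by label-free LC-MS/MS and normalised to the control. Kd was found by multiplying EC50, from a four-parameter log-logistic fit, by a protein-dependent depletion factor.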

A further series deals with T2, ZGPAT (UniProt Q8N5A5).
T2 sequence: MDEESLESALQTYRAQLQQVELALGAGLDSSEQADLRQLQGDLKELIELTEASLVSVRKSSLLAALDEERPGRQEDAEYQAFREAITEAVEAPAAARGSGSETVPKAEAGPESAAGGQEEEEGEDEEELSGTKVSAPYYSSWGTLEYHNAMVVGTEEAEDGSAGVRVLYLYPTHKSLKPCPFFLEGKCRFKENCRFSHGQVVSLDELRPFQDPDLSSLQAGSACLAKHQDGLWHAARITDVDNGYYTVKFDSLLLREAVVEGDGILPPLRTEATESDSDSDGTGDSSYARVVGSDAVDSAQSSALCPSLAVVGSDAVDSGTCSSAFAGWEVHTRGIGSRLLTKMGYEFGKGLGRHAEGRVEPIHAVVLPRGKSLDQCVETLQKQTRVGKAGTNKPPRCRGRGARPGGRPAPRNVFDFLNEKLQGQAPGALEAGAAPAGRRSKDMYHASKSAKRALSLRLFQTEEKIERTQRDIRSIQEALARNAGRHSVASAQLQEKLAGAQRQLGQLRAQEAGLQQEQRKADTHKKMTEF
A digest of the protocol:
as §1

The target of another series is AGO1 (UniProt Q9UL18). A digest of the protocol: as §1
The next series addresses MRPL43 (UniProt Q8N983). A digest of the protocol: as §1
In another series the target is PCBP2 (UniProt Q15366). A digest of the protocol: as §1
The target of another series is T3, TRIM56 (UniProt Q9BRZ2).
T3 sequence: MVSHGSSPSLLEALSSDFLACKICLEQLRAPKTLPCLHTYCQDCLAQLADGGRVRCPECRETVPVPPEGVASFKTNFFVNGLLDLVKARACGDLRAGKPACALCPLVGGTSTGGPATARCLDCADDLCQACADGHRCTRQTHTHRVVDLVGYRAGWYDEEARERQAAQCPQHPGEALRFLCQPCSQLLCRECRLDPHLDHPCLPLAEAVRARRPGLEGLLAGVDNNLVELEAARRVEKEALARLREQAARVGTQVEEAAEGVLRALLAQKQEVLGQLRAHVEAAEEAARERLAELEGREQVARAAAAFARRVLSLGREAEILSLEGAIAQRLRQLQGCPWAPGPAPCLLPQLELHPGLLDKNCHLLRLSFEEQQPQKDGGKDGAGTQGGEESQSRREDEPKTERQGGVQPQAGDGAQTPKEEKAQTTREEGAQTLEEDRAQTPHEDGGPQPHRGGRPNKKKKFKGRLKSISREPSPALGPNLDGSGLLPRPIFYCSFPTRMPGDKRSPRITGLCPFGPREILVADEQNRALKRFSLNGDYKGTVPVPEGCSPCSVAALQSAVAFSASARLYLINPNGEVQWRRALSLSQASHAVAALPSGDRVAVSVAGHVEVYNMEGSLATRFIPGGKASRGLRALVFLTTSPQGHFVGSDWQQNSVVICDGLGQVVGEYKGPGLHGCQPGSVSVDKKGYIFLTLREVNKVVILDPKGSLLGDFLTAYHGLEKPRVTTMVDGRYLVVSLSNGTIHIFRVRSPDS
A digest of the protocol: as §1

The target in the next series is ZCCHC11 (UniProt Q5TAX3). The method in brief:
as §1

A further series deals with DAP3 (UniProt P51398). A digest of the protocol:
as §1

The target of the next series is T4, LSM6 (UniProt P62312).
T4 sequence: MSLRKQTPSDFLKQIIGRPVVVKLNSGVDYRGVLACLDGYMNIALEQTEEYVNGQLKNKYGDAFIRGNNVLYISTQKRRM
The method in brief:
as §1

Another series has as its target T5, LSM8 (UniProt O95777).
T5 sequence: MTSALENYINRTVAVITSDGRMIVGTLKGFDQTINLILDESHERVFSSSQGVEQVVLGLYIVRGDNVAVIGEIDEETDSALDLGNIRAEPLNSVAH
A digest of the protocol:
as §1

The target of another series is PTCD3 (UniProt Q96EY7). A digest of the protocol: as §1

Usually Kd stands for the equilibrium constant for the complex coming apart.

Sequence of ZCCHC11 (Q5TAX3 whole entry): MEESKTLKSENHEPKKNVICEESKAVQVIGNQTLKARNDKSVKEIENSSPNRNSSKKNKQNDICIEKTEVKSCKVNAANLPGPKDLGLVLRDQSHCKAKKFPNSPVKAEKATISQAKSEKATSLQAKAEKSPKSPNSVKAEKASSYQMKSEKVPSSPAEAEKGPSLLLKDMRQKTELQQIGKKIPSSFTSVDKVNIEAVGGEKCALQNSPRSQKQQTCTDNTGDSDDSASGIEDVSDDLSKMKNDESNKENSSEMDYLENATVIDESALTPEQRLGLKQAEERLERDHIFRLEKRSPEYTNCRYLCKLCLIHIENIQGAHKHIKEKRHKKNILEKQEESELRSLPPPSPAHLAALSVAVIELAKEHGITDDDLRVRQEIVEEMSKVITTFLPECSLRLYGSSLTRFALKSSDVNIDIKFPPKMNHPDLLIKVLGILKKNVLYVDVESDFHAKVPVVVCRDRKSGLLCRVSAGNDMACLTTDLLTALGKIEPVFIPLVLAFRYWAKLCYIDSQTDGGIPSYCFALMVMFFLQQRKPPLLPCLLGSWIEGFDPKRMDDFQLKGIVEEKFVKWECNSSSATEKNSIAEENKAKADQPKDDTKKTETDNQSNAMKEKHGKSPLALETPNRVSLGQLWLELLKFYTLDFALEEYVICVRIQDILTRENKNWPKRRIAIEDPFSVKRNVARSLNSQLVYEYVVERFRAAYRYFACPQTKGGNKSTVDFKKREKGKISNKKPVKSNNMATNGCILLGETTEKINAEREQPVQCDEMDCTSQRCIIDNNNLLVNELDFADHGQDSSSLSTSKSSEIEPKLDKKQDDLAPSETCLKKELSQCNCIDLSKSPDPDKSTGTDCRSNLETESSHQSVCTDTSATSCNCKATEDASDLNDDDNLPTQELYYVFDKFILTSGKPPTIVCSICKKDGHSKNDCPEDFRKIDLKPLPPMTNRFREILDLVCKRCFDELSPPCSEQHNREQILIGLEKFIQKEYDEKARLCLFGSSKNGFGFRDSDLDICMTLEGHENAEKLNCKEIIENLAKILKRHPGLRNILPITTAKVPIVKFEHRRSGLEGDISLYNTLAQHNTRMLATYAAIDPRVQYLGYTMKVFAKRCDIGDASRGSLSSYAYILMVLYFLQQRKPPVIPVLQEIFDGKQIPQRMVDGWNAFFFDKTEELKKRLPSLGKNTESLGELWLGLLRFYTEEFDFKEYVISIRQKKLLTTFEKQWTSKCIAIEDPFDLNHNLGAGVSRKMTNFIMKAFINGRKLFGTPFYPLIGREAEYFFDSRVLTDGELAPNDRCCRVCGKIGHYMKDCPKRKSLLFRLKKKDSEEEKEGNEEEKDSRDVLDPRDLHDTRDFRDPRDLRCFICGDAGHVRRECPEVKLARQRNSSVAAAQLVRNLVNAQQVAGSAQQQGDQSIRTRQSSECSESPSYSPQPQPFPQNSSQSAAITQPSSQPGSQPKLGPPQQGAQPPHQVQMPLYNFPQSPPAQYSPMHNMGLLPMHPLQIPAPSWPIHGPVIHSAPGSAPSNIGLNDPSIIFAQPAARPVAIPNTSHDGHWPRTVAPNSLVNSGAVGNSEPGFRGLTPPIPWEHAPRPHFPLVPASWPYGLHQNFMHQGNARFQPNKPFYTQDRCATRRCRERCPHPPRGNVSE
Sequence of PCBP2 (Q15366 whole entry): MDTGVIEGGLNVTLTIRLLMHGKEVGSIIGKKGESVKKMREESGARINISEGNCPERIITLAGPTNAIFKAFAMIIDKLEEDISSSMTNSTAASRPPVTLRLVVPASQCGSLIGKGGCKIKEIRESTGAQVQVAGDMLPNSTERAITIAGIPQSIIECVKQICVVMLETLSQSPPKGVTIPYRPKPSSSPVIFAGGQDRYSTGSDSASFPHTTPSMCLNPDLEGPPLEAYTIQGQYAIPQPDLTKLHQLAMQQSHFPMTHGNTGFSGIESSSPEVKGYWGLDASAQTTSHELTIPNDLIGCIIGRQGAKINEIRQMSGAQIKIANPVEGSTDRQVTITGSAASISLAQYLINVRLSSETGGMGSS

Consider AAUAAA, for which the values for the Kd with RBM47, in the series with ZGPAT and with AGO1 were 417 nM, 4390 nM and 78.7 nM, respectively.

Take CUGUCCU: the Kd in the series with MRPL43 came out at 40.4 nM; with PCBP2, 1240 nM.

As for UAUUUAU, the dissociation constant Kd in the series with TRIM56 stood at 2880 nM; with ZCCHC11 it was 91.8 nM; in the series with DAP3, 37.4 nM; with LSM6, 275 nM; with LSM8, 2230 nM; with PTCD3, 27.4 nM.
